We go through 3 molecules from patent publication US20190092852A1 (Genentech, published 2019).

For one assay, the target named is T1, biotinylated human IL-33 (human, UniProt O95760 112-270, biotin-labeled with EZ-LINK NHS-PEG4-Biotin).
T1 construct: also called biotin-huIL-33
T1 sequence (looked up): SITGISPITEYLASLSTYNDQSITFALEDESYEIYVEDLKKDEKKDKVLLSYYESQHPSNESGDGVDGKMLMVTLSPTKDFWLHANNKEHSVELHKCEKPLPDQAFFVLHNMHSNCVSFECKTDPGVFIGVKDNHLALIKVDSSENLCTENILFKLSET
The assay is described as follows: competitive ELISA, biotin-huIL-33 to coated hST2-Fc. As to the method:
The ability of the anti-IL-33 antibody 10C12.38.H6.87Y.58I IgG4 and each anti-IL-33 antibody listed in Table 5 (RG1-RG20) to block either human IL-33 or cyno IL-33 binding to human ST2 receptor was tested in a competitive binding ELISA. Briefly, 1 μg/ml of recombinant human ST2-Fc chimera protein prepared in coating buffer (50 mM sodium carbonate, pH 9.6) was coated on a 384-well MAXISORP® plate (Nalgene Nunc International; Rochester, N.Y.) and incubated overnight at 4° C. On the next day, non-specific binding was blocked with PBS containing 0.5% (w/v) solution of bovine serum albumin (BSA). Fixed concentrations of biotinylated human or cyno IL-33 prepared in assay buffer (25 mM PBS, pH 7.2, 0.1% BSA, 0.05% TWEEN®-20) were mixed with an equal volume of serially-diluted anti-IL-33 antibodies or assay buffer alone and incubated for 1 h at room temperature. The final assay concentrations of biotinylated human IL-33 or cyno IL-33 were 20 pM and 45 pM, respectively, and the final assay concentration of each antibody ranged from 0-300 nM. The pre-mixed solutions were added to the ST2-Fc coated plate and incubated for 1 h at room temperature. The binding of biotinylated IL-33 to coated ST2-Fc was detected by the sequential addition of Streptavidin Poly-HRP80 (Fitzgerald; Buckinghamshire, UK) and 3,3′,5,5′-tetramethyl benzidine (TMB) Microwell Peroxidase Substrate System (KPL; Gaithersburg, Md.). The absorbance (450 nm) was recorded using a […] ASCENT® plate reader (Thermo Scientific; Rockford, Ill.). The binding activity (%) of biotin-IL-33 to ST2 in the presence of anti-IL-33 was plotted as a function of antibody concentration. The data generated were fitted to a four-parameter equation to determine IC₅₀ values for each antibody (FIGS. 25A and 25B) using Prism software (Graphpad Software; La Jolla, Calif.). The maximum blocking (%) of each antibody was calculated as the ratio of the reduction in signal measured in the presence of antibody relative to the difference between the signal with IL-33 alone and background measurements.

For assay [1], the target named is T2, cyno IL-33 N-His (cynomolgus monkey).
T2 chain: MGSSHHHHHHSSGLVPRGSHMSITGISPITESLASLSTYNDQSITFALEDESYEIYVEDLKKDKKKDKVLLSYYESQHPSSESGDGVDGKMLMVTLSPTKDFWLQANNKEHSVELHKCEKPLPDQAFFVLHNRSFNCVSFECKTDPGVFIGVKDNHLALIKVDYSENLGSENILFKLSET
The assay is described as follows: SPR Biacore T200, 37 C. The protocol:
(§1) The binding kinetics of the anti-IL-33 antibody 10C12.38.H6.87Y.58I IgG4 and each anti-IL-33 antibody listed in Table 5 (RG1-RG20) to IL-33 were measured using surface plasmon resonance (SPR) on a BIACORE® T200 instrument (GE Healthcare). Anti-human Fc or anti-murine Fc (GE Healthcare, #BR-1008-39 or BR-1008-38, respectively) was immobilized on a CM5 sensor chip via amine-based coupling according to the manufacturer's protocol. Surfaces were used to capture monoclonal human IgG4 and monoclonal murine IgGs for kinetic studies. Antibody binding was measured to human IL-33 (R&D systems, #3625-IL-010/CF) and cyno IL-33 N-His (SEQ ID NO: 317) (Genentech, Inc.). A three-fold concentration series of cytokine with a range of 3.7 to 100 nM was used for the experiments. Sensograms for binding of IL-33 were recorded using an injection time of 4 min with a flow rate of 30 μl/minute with a running buffer of 0.01 M N-(2-Acetamido)iminodiacetic acid (ADA) pH 7.4, 0.15 M NaCl, 3 mM EDTA, and 0.05% TWEEN®-20. After injection, disassociation of the ligand from the antibody was monitored for 10 min in running buffer. The surface was regenerated in between cycles with an injection of 3 M magnesium chloride or Glycine-HCl pH 1.7. All binding experiments were performed at a temperature of 25′C and 37° C. After subtraction of a blank which contained running buffer only, sensograms observed for IL-33 binding to anti-IL-33 antibodies were analyzed using a 1:1 Langmuir binding model with software supplied by the manufacturer to calculate the kinetics and binding constants, including the dissociation constant (KD). Dissociative half-lives (t_{1/2}) were calculated from the kinetic rate constants. KD (M)=koff/kₒₙ and t_{1/2} (min)=ln(2)/(60*koff). […] In Tables 6-9, *IC indicates the result is inconclusive due to weak capture of antibody was observed, leading to poor binding data.
(In general: SPR reads the build-up and loss of mass on a sensor chip optically.)

The target of assay [2] is T3, human IL-33 (R&D Systems, #3625-IL-010/CF) (human, UniProt O95760 112-270).
T3 construct: also called hIL-33; huIL-33
T3 sequence (looked up): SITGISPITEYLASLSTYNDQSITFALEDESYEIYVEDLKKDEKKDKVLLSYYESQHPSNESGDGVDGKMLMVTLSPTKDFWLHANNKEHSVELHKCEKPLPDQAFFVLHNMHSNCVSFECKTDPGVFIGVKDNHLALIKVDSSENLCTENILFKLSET
The experiment in a line: SPR Biacore T200, 37 C. As to the method: as §1

Assay [3] addresses T2, cyno IL-33 N-His. The experiment in a line: SPR Biacore T200, 25 C. As to the method:
as §1

Assay [4] addresses T3, human IL-33 (R&D Systems, …). The assay is described as follows: SPR Biacore T200, 25 C. As to the method:
as §1

The target is the same in assay [5]. The assay is described as follows: cell-based or functional assay.
For assay [6] the target is unchanged. The assay is described as follows: cell-based or functional assay. This is another data set of the same source.
Assay [7] shares this target. The assay is described as follows: cell-based or functional assay. The source holds these as a separate data set.
Assay [8] has the same target. The experiment in a line: cell-based or functional assay. This is another data set of the same source.

B1: H1M9559N (antibody, IgG1, V domains shown)
VH: QVQLVESGGGVVQPGRSLRLSCAASGFTFSSYGMHWVRQAPGKGLEWVAVIWYDGRNKYYTDSVKGRFTISRDNSKNTLYLQMDSLRAEDTAVYYCARERYISSYYGGFDPWGQGALVTVSS
VL: DIQMTQSPSSVSASVGDRVTITCRASQGISSWLAWYQQKPGKAPKVLIYAASSLQSGVPSRFSGSGSGTDFTLTISSLQPEDFATYYCQQANSFPFTFGPGTKLDIK
notes: also called RG1
The term IC50 denotes the point on the concentration scale where inhibition reaches its midpoint. For orientation: Kd means a measure of binding affinity in units of concentration. What is called koff is a measure of how fast the partners let go of each other. By kon is commonly meant a measure of how fast the partners come together. Turning to B1, in the assay with biotinylated human IL-33, the IC50 stood at 4.1 nM and the “Maximum Blocking” value stood at 75%. In the assay with cyno IL-33 N-His [1], this molecule returned a Kd of 8.33 nM, a koff of 0.00193 s⁻¹, a kon of 232000 M⁻¹ s⁻¹ and a t1/2 of 6 min. In assay [2], this molecule yielded a Kd of 2.37 nM, a koff of 0.000888 s⁻¹, a kon of 374000 M⁻¹ s⁻¹ and a t1/2 of 13 min. In the assay with cyno IL-33 N-His [3], the Kd worked out at 3.76 nM, the koff turned out to be 0.000458 s⁻¹, the kon is 122000 M⁻¹ s⁻¹ and the t1/2 worked out at 25 min. Moreover, in assay [4], the affinity, expressed as Kd, was 0.811 nM; the koff turned out to be 0.000184 s⁻¹; the kon amounted to 226000 M⁻¹ s⁻¹; the t1/2 is 63 min. In assay [5], the “Ph-p38 MFI at 2 nM Ab (500 pM human IL-33, primary basophils)” value (“Ph-p38 MFI at 2 nM Ab” below) came out at 100 MFI. Besides, the “IC50; SEAP reporter (OD 620), HEK-BLUE IL-33/IL-1beta cells, 10 pM hIL-33” value (“IC50; SEAP reporter” for short) in assay [6] came to 9.5e-09 M. Further, the “Ph-p38 MFI at 0.4 nM Ab (500 pM human IL-33, primary basophils)” value (“Ph-p38 MFI at 0.4 nM Ab” below) in [7] is 90 MFI.

B2: H4H9633P (antibody, IgG4, V domains shown)
VH: EVQLVESGGGLVQPGGSLRLSCAASGFTFSSYVMSWVRQAPGKGLEWVSSISGNGGSTNYADSVKGRFTISRDNSKNTLFLEMNSLRAEDTAVYYCAKSLGTTTTFLGFDYWGQGTLVTVSS
VL: DIQMTQSPSSVSASVGDRVTITCRASQGISSWLAWYQQKPGKAPKLLIYAASSLQSGVPSRFSGSGSGTYFTLTISSLQPEDFATYYCQQANSFPLTFGGGTKVEIK
notes: also called RG5
Turning to B2, in the assay with biotinylated human IL-33, the IC50 is 1.1 nM and the “Maximum Blocking” value worked out at 68%. Besides, in the assay with cyno IL-33 N-His [1], the Kd was found to be 42.7 nM, the koff is 0.0113 s⁻¹, the kon is 265000 M⁻¹ s⁻¹ and the t1/2 was found to be 1 min. For the same molecule, in assay [2], the Kd stood at 0.726 nM, the koff is 0.000845 s⁻¹, the kon was 1.16e+06 M⁻¹ s⁻¹ and the t1/2 was 14 min. Moreover, in [8], the “IC50; IFN-gamma ELISA, primary human NK cells, 260 pM hIL-33 + IL-12” value is 4.1e-08 M. Also, in the assay with cyno IL-33 N-His [3], the affinity, expressed as Kd, was 14.9 nM; the koff came out at 0.00337 s⁻¹; the kon was 227000 M⁻¹ s⁻¹; the t1/2 was determined as 3 min. In [4], this molecule displayed a Kd of 0.941 nM, a koff of 0.000462 s⁻¹, a kon of 491000 M⁻¹ s⁻¹ and a t1/2 of 25 min. Moreover, in [5], the “Ph-p38 MFI at 2 nM Ab” value was determined as 142 MFI. Moreover, the “IC50; SEAP reporter” value in assay [6] is 3.7e-09 M. The “Ph-p38 MFI at 0.4 nM Ab” value in assay [7] was determined as 149 MFI.

B3: H1M9566N (antibody, IgG1, V domains shown)
VH: EVQLLESGGDLVQPGGSLRLSCAASGFTFSSYAMSWVRQAPGKGLEWVSVISGSGSSTDYADSVKGRFTISRDNSRDTLHLQMNSLRAEDTAVYYCAKTFYYFYGLDVWGQGTTVTVSS
VL: DIQMTQSPSSLSASLRDRVTITCRASQGISNYLAWYQQKPGKVPKVLIYAASTLQSGVPSRFSGSGSGTVFTLTISSLQTEDVATYYCQKYSSAPFTFGPGTKVDIK
notes: also called RG2
For the molecule B3, in the assay with biotinylated human IL-33, the IC50 stood at 0.099 nM and the “Maximum Blocking” value turned out to be 27%. Moreover, in the assay with cyno IL-33 N-His [1], binding was characterised by a dissociation constant (Kd) of 2.54 nM, the off-rate constant (koff) is 0.000469 s⁻¹, the kon came to 185000 M⁻¹ s⁻¹ and the t1/2 was found to be 25 min. In assay [2], this molecule displayed a Kd of 4.04 nM, a koff of 0.000522 s⁻¹, a kon of 129000 M⁻¹ s⁻¹ and a t1/2 of 22 min. In the assay with cyno IL-33 N-His [3], this molecule registered a Kd of 0.656 nM, a koff of 7.66e-05 s⁻¹, a kon of 117000 M⁻¹ s⁻¹ and a t1/2 of 151 min. For the same molecule, in [4], the Kd amounted to 0.798 nM, the koff is 7.73e-05 s⁻¹, the kon was found to be 96900 M⁻¹ s⁻¹ and the t1/2 is 149 min. Besides, the “Ph-p38 MFI at 2 nM Ab” value in assay [5] was 146 MFI. Moreover, the “IC50; SEAP reporter” value in [6] was 1.7e-08 M. Moreover, in assay [7], the “Ph-p38 MFI at 0.4 nM Ab” value was 119 MFI.
